This passage reports He/Con_2b and He/Con_1a results from patent US20150344570A1 (published 2015).

The target of test [1] is T1, FcγRIIb extracellular domain with C-terminal His tag (human, UniProt P31994 43-217).
T1 construct: extracellular domain; expressed in FreeStyle293 cells; analyte in Biacore; also called FcgRIIb; 2b
T1 sequence (looked up): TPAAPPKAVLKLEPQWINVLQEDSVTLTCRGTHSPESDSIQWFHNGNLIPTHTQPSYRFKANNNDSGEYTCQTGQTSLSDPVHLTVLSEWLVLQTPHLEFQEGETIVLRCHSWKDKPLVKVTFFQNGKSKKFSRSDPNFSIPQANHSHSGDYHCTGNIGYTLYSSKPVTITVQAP
In words: SPR (Biacore), captured antibody, FcγR as analyte; relative binding.

For test [2], the target named is T2, FcγRIa extracellular domain with C-terminal His tag (human, UniProt P12314 16-292).
T2 construct: extracellular domain; expressed in FreeStyle293 cells; analyte in Biacore; also called FcgRI; 1a
The test is described as above.
T2 sequence (P12314 16-292): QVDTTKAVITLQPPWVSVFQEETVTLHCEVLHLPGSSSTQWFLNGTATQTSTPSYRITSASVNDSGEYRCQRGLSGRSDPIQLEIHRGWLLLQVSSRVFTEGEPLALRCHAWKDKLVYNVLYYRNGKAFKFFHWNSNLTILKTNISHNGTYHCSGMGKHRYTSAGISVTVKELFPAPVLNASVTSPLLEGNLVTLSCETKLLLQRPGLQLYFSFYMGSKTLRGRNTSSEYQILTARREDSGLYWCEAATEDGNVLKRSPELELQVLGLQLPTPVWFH

For test [3], the target named is T3, FcγRIIb extracellular domain with C-terminal His tag (human, UniProt P31994 43-217).
T3 construct: extracellular domain; soluble analyte in Biacore; also called FcgRIIb; not shown: His tag at the C terminus
T3 sequence (looked up): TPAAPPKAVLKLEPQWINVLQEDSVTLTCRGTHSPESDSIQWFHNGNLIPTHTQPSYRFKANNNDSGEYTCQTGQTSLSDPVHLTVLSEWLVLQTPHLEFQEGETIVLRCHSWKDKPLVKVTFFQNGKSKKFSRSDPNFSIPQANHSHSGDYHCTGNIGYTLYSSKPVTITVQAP
Put plainly: SPR, binding relative to GpH7-A5/GpH7-B3/GpL16-k0 = 100. On the technique in general: In SPR one partner is held on a chip, and binding of the other changes the refractive index at the surface.

Test [4] deals with T4, FcγRIa extracellular domain with C-terminal His tag (human, UniProt P12314 16-292).
T4 construct: extracellular domain; soluble analyte in Biacore; also called FcgRI; not shown: His tag at the C terminus
The test is described as above.
T4 sequence (P12314 16-292): as the sequence (P12314 16-292) above

B1: GpH7-A5/GpH7-B3 variant Y300_13S/GpL16-k0 (antibody, human IgG1, kappa)
heavy 1: not shown
heavy 2: not shown
light: DIVMTQSPLSLPVTPGEPASISCQASESLVHSNRNTYLHWYLQKPGQSPQLLIYKVSNRFSGVPDRFSGSGSGTDFTLKISRVEAEDVGVYYCSQNTHVPPTFGQGTKVEIERTVAAPSVFIFPPSDEQLKSGTASVVCLLNNFYPREAKVQWKVDNALQSGNSQESVTEQDSKDSTYSLSSTLTLSKADYEKHKVYACEVTHQGLSSPVTKSFNRGEC
notes: He Ab; IgG1, mutation in one H chain
As to B1, in test [1], the He/Con_2b was 53.9 % of HeCon Ab (GpH7-A5/GpH7-B3/GpL16-k0 = 100). Moreover, in test [2], the He/Con_1a was 111 % of HeCon Ab (GpH7-A5/GpH7-B3/GpL16-k0 = 100).

B2: GpH7-A5/GpH7-B3 variant A330_10E/GpL16-k0 (antibody, human IgG1, kappa)
heavy 1: not shown
heavy 2: not shown
light: DIVMTQSPLSLPVTPGEPASISCQASESLVHSNRNTYLHWYLQKPGQSPQLLIYKVSNRFSGVPDRFSGSGSGTDFTLKISRVEAEDVGVYYCSQNTHVPPTFGQGTKVEIERTVAAPSVFIFPPSDEQLKSGTASVVCLLNNFYPREAKVQWKVDNALQSGNSQESVTEQDSKDSTYSLSSTLTLSKADYEKHKVYACEVTHQGLSSPVTKSFNRGEC
notes: change in the GpH7-B3 H chain only; also called He Ab
With B2, the He/Con_2b in test [3] is 70.1 % of control. Further, the He/Con_1a in test [4] is 107 % of control.

B3: GpH7-A5/GpH7-B3 variant A327_06M/GpL16-k0 (antibody, human IgG1, kappa)
heavy 1: not shown
heavy 2: not shown
light: DIVMTQSPLSLPVTPGEPASISCQASESLVHSNRNTYLHWYLQKPGQSPQLLIYKVSNRFSGVPDRFSGSGSGTDFTLKISRVEAEDVGVYYCSQNTHVPPTFGQGTKVEIERTVAAPSVFIFPPSDEQLKSGTASVVCLLNNFYPREAKVQWKVDNALQSGNSQESVTEQDSKDSTYSLSSTLTLSKADYEKHKVYACEVTHQGLSSPVTKSFNRGEC
notes: as for B2
With B3, in test [3], the He/Con_2b is 59.5 % of control. Moreover, the He/Con_1a in test [4] was 103 % of control.

B4: GpH7-A5/GpH7-B3 variant Y300_14T/GpL16-k0 (antibody, human IgG1, kappa)
heavy 1: not shown
heavy 2: not shown
light: DIVMTQSPLSLPVTPGEPASISCQASESLVHSNRNTYLHWYLQKPGQSPQLLIYKVSNRFSGVPDRFSGSGSGTDFTLKISRVEAEDVGVYYCSQNTHVPPTFGQGTKVEIERTVAAPSVFIFPPSDEQLKSGTASVVCLLNNFYPREAKVQWKVDNALQSGNSQESVTEQDSKDSTYSLSSTLTLSKADYEKHKVYACEVTHQGLSSPVTKSFNRGEC
notes: as for B1
On to B4, for which the He/Con_2b in test [1] is 55.6 % of HeCon Ab (GpH7-A5/GpH7-B3/GpL16-k0 = 100). The He/Con_1a in test [2] is 112 % of HeCon Ab (GpH7-A5/GpH7-B3/GpL16-k0 = 100).

B5: GpH7-A5/GpH7-B3 variant A330_03V/GpL16-k0 (antibody, human IgG1, kappa)
heavy 1: not shown
heavy 2: not shown
light: DIVMTQSPLSLPVTPGEPASISCQASESLVHSNRNTYLHWYLQKPGQSPQLLIYKVSNRFSGVPDRFSGSGSGTDFTLKISRVEAEDVGVYYCSQNTHVPPTFGQGTKVEIERTVAAPSVFIFPPSDEQLKSGTASVVCLLNNFYPREAKVQWKVDNALQSGNSQESVTEQDSKDSTYSLSSTLTLSKADYEKHKVYACEVTHQGLSSPVTKSFNRGEC
notes: as for B2
Take B5: the He/Con_2b in test [3] is 52.4 % of control. In addition, in test [4], the He/Con_1a is 106 % of control.

B6: GpH7-A5/GpH7-B3 variant A327_13S/GpL16-k0 (antibody, human IgG1, kappa)
heavy 1: not shown
heavy 2: not shown
light: DIVMTQSPLSLPVTPGEPASISCQASESLVHSNRNTYLHWYLQKPGQSPQLLIYKVSNRFSGVPDRFSGSGSGTDFTLKISRVEAEDVGVYYCSQNTHVPPTFGQGTKVEIERTVAAPSVFIFPPSDEQLKSGTASVVCLLNNFYPREAKVQWKVDNALQSGNSQESVTEQDSKDSTYSLSSTLTLSKADYEKHKVYACEVTHQGLSSPVTKSFNRGEC
notes: as for B2
As to B6, the He/Con_2b in test [3] is 79.5 % of control. Also, the He/Con_1a in test [4] was 102 % of control.

B7: GpH7-A5/GpH7-B3 variant A330_07I/GpL16-k0 (antibody, human IgG1, kappa)
heavy 1: not shown
heavy 2: not shown
light: DIVMTQSPLSLPVTPGEPASISCQASESLVHSNRNTYLHWYLQKPGQSPQLLIYKVSNRFSGVPDRFSGSGSGTDFTLKISRVEAEDVGVYYCSQNTHVPPTFGQGTKVEIERTVAAPSVFIFPPSDEQLKSGTASVVCLLNNFYPREAKVQWKVDNALQSGNSQESVTEQDSKDSTYSLSSTLTLSKADYEKHKVYACEVTHQGLSSPVTKSFNRGEC
notes: as for B2
For the molecule B7, in test [3], the He/Con_2b was 67.1 % of control. Moreover, the He/Con_1a in test [4] is 105 % of control.

B8: GpH7-A5/GpH7-B3 variant A330_08L/GpL16-k0 (antibody, human IgG1, kappa)
heavy 1: not shown
heavy 2: not shown
light: DIVMTQSPLSLPVTPGEPASISCQASESLVHSNRNTYLHWYLQKPGQSPQLLIYKVSNRFSGVPDRFSGSGSGTDFTLKISRVEAEDVGVYYCSQNTHVPPTFGQGTKVEIERTVAAPSVFIFPPSDEQLKSGTASVVCLLNNFYPREAKVQWKVDNALQSGNSQESVTEQDSKDSTYSLSSTLTLSKADYEKHKVYACEVTHQGLSSPVTKSFNRGEC
notes: as for B2
Turning to B8, the He/Con_2b in test [3] was 70.5 % of control. The He/Con_1a in test [4] is 107 % of control.

B9: GpH7-A5/GpH7-B3 variant Y300_16H/GpL16-k0 (antibody, human IgG1, kappa)
heavy 1: not shown
heavy 2: not shown
light: DIVMTQSPLSLPVTPGEPASISCQASESLVHSNRNTYLHWYLQKPGQSPQLLIYKVSNRFSGVPDRFSGSGSGTDFTLKISRVEAEDVGVYYCSQNTHVPPTFGQGTKVEIERTVAAPSVFIFPPSDEQLKSGTASVVCLLNNFYPREAKVQWKVDNALQSGNSQESVTEQDSKDSTYSLSSTLTLSKADYEKHKVYACEVTHQGLSSPVTKSFNRGEC
notes: as for B1
On to B9, for which the He/Con_2b in test [1] was 87 % of HeCon Ab (GpH7-A5/GpH7-B3/GpL16-k0 = 100). The He/Con_1a in test [2] is 111 % of HeCon Ab (GpH7-A5/GpH7-B3/GpL16-k0 = 100).

B10: GpH7-A5/GpH7-B3 variant A330_04F/GpL16-k0 (antibody, human IgG1, kappa)
heavy 1: not shown
heavy 2: not shown
light: DIVMTQSPLSLPVTPGEPASISCQASESLVHSNRNTYLHWYLQKPGQSPQLLIYKVSNRFSGVPDRFSGSGSGTDFTLKISRVEAEDVGVYYCSQNTHVPPTFGQGTKVEIERTVAAPSVFIFPPSDEQLKSGTASVVCLLNNFYPREAKVQWKVDNALQSGNSQESVTEQDSKDSTYSLSSTLTLSKADYEKHKVYACEVTHQGLSSPVTKSFNRGEC
notes: as for B2
Take B10: in test [3], the He/Con_2b is 92.8 % of control. Further, in test [4], the He/Con_1a was 106 % of control.

B11: GpH7-A5/GpH7-B3 variant Y300_20W/GpL16-k0 (antibody, human IgG1, kappa)
heavy 1: not shown
heavy 2: not shown
light: DIVMTQSPLSLPVTPGEPASISCQASESLVHSNRNTYLHWYLQKPGQSPQLLIYKVSNRFSGVPDRFSGSGSGTDFTLKISRVEAEDVGVYYCSQNTHVPPTFGQGTKVEIERTVAAPSVFIFPPSDEQLKSGTASVVCLLNNFYPREAKVQWKVDNALQSGNSQESVTEQDSKDSTYSLSSTLTLSKADYEKHKVYACEVTHQGLSSPVTKSFNRGEC
notes: as for B1
On to B11, for which the He/Con_2b in test [1] was 84.1 % of HeCon Ab (GpH7-A5/GpH7-B3/GpL16-k0 = 100). For the same molecule, the He/Con_1a in test [2] was 112 % of HeCon Ab (GpH7-A5/GpH7-B3/GpL16-k0 = 100).

B12: GpH7-A5/GpH7-B3 variant A330_06M/GpL16-k0 (antibody, human IgG1, kappa)
heavy 1: not shown
heavy 2: not shown
light: DIVMTQSPLSLPVTPGEPASISCQASESLVHSNRNTYLHWYLQKPGQSPQLLIYKVSNRFSGVPDRFSGSGSGTDFTLKISRVEAEDVGVYYCSQNTHVPPTFGQGTKVEIERTVAAPSVFIFPPSDEQLKSGTASVVCLLNNFYPREAKVQWKVDNALQSGNSQESVTEQDSKDSTYSLSSTLTLSKADYEKHKVYACEVTHQGLSSPVTKSFNRGEC
notes: as for B2
Take B12: the He/Con_2b in test [3] was 80.5 % of control. Also, the He/Con_1a in test [4] is 105 % of control.

B13: GpH7-A5/GpH7-B3 variant A330_09D/GpL16-k0 (antibody, human IgG1, kappa)
heavy 1: not shown
heavy 2: not shown
light: DIVMTQSPLSLPVTPGEPASISCQASESLVHSNRNTYLHWYLQKPGQSPQLLIYKVSNRFSGVPDRFSGSGSGTDFTLKISRVEAEDVGVYYCSQNTHVPPTFGQGTKVEIERTVAAPSVFIFPPSDEQLKSGTASVVCLLNNFYPREAKVQWKVDNALQSGNSQESVTEQDSKDSTYSLSSTLTLSKADYEKHKVYACEVTHQGLSSPVTKSFNRGEC
notes: as for B2
Regarding B13, in test [3], the He/Con_2b was 55.6 % of control. Further, the He/Con_1a in test [4] was 109 % of control.

B14: GpH7-A5/GpH7-B3 variant A327_03V/GpL16-k0 (antibody, human IgG1, kappa)
heavy 1: not shown
heavy 2: not shown
light: DIVMTQSPLSLPVTPGEPASISCQASESLVHSNRNTYLHWYLQKPGQSPQLLIYKVSNRFSGVPDRFSGSGSGTDFTLKISRVEAEDVGVYYCSQNTHVPPTFGQGTKVEIERTVAAPSVFIFPPSDEQLKSGTASVVCLLNNFYPREAKVQWKVDNALQSGNSQESVTEQDSKDSTYSLSSTLTLSKADYEKHKVYACEVTHQGLSSPVTKSFNRGEC
notes: as for B2
As for B14, the He/Con_2b in test [3] is 94.7 % of control. Further, in test [4], the He/Con_1a was 103 % of control.
